Assay results as given in article PMC4793217.
One block for each binder: values may come before it.

Assays:
[1] = biological target: T1, ME31B, endogenous (D. melanogaster (endogenous in embryos)) (UniProt P23128); experiment: co-IP
T1 sequence: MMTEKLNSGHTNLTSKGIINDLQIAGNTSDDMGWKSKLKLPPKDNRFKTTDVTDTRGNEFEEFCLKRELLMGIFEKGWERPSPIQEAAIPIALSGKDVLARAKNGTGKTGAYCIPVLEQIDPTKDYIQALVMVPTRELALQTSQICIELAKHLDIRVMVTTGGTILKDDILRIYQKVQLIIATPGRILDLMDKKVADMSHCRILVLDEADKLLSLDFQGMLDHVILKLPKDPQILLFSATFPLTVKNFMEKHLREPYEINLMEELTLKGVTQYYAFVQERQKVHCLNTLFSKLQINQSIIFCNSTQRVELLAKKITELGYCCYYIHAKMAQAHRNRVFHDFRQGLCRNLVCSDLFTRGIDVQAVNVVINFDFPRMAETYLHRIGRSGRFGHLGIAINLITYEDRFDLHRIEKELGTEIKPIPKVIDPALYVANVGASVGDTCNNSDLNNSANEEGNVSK

[2] = biological target: IMP, endogenous (D. melanogaster (endogenous in embryos)); experiment: co-IP

percent of IP input precipitated [1]: < 1%
B1: anti-ME31B (P012) synthetic Fab (Fab, V domains shown)
VH: EVQLVESGGGLVQPGGSLRLSCAASGFNLSYSSIHWVRQAPGKGLEWVASIYSYYGYTYYADSVKGRFTISADTSKNTAYLQMNSLRAEDTAVYYCARWYWYGWALDYWGQGTLVTVSS
VL: DIQMTQSPSSLSASVGDRVTITCRASQSVSSAVAWYQQKPGKAPKLLIYSASSLYSGVPSRFSGSRSGTDFTLTISSLQPEDFATYYCQQGPYPYYGLITFGQGTKVEIK

percent of IP input precipitated [2]: 1 to 10%
B2: anti-IMP (P054) synthetic Fab (Fab, V domains shown)
VH: EVQLVESGGGLVQPGGSLRLSCAASGFNLSYSYIHWVRQAPGKGLEWVASIYSYYSYTYYADSVKGRFTISADTSKNTAYLQMNSLRAEDTAVYYCARWWVVYGMDYWGQGTLVTVSS
VL: DIQMTQSPSSLSASVGDRVTITCRASQSVSSAVAWYQQKPGKAPKLLIYSASSLYSGVPSRFSGSRSGTDFTLTISSLQPEDFATYYCQQHWWLITFGQGTKVEIK
